Data published in patent US20080233097A1, “Phosphorylation Site Of Mitogen-Activated Protein Kinases, Modified Proteins And Applications” (UNIVERSIDAD AUTONOMA DE MADRID, priority 2005, published 2008).

Molecular target: T1, GRK2 (Bos taurus, UniProt P21146)
T1 construct: made in house; host or cells: Sf9 cells (baculovirus)
T1 sequence (P21146 1-689): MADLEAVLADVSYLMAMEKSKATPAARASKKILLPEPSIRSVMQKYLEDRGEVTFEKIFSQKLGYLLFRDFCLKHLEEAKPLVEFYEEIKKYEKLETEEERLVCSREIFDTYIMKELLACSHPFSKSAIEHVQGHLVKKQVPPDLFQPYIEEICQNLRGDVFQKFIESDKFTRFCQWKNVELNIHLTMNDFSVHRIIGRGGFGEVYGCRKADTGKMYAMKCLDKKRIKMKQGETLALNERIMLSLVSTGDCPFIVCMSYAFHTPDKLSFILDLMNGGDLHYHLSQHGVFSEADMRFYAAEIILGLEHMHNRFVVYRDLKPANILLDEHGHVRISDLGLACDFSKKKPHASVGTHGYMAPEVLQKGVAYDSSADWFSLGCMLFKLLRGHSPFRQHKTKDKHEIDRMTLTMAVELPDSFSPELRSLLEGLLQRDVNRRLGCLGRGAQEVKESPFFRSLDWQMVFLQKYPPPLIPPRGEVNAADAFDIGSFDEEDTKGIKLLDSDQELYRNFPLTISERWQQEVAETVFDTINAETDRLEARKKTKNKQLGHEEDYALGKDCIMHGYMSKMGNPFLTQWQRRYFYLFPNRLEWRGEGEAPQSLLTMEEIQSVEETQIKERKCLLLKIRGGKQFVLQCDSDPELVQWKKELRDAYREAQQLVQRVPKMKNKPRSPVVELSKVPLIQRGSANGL
Assay: phosphorylation of p38 mutants and truncated proteins by GRK2 in vitro
Format: biochemical
Conditions: GST fusion proteins, 30 minutes at 30° C.
Protocol: FIG. 6A: Proteins fused to GST (black rectangle in the protein schemes) were purified from bacteria transformed with the plasmids pGEX2T-p38α, pGEX4T-Mxi2 and pGEX4T-Mxi2Δ17: p38α, Mxi2 and Mxi2Δ17. The […] isoforms used as C-terminal truncated mutants for trying to limit the GRK2 phosphorylation site. […] Heparin (150 nM) was included as a specific GRK2 inhibitor. The reactions were stopped by adding SDS breaking buffer. The samples were resolved in 8% SDS-PAGE. For the purpose of assuring the inclusion of identical amounts of protein, they were first visualized in the gel by Coomassie Brilliant Blue (CBB) staining. Then the gel was dried and the radioactivity incorporated to the proteins (^32P) was detected. FIG. 6B: The truncated GST-280-360p38 protein, corresponding to the last 80 p38α amino acids, was generated by means of the Invitrogen Gateway system. Phosphorylation assays were carried out with Mxi2Δ17 as a p38 N-terminal, 280-360 p38 as C-terminal and with whole p38α in the same conditions as described in section A. The phosphorylation was detected by autoradiography (^32P) and controls of the amount of protein used in the assays were carried out concomitantly by Western blot with the anti-GST antibody. The presence of the GST-280-360p38 protein, which is not phosphorylated, is clearly observed. STD, mobility of standard molecular weight proteins.
FIG. 9A: p38T123A and p38T123D proteins, fused to GST, were made by directed mutagenesis in the prokaryotic expression plasmids pGEX2T. The ability of the recombinant GST-p38T123A and GST-p38T123D proteins to be GRK2 substrates in comparison to the wild GST-p38WT protein and at the final concentrations indicated in the Figure was assayed. The upper panels represent the obtained phosphorylation (32 P) and the lower panels show, by anti-p38N WB, the amount of recombinant protein used in the assays. […]
Heparin (150 nM) was included as a specific GRK2 inhibitor. […] Subsequently, the gel was dried and the radioactivity incorporated to the proteins (^32P) was detected. […]

B1: p38T123D: p38α mutant; aspartic acid mimics the constitutively phosphorylated form of threonine 123 (protein, UniProt P47811 2-360, looked up, variant T123D)
Mitogen-activated protein …: SQERPTFYRQELNKTIWEVPERYQNLSPVGSGAYGSVCAAFDTKTGHRVAVKKLSRPFQSIIHAKRTYRELRLLKHMKHENVIGLLDVFTPARSLEEFNDVYLVTHLMGADLNNIVKCQKLDDDHVQFLIYQILRGLKYIHSADIIHRDLKPSNLAVNEDCELKILDFGLARHTDDEMTGYVATRWYRAPEIMLNWMHYNQTVDIWSVGCIMAELLTGRTLFPGTDHIDQLKLILRLVGTPGAELLKKISSESARNYIQSLAQMPKMNFANVFIGANPLAVDLLEKMLVLDSDKRITAAQALAHAYFAQYHDPDDEPVADPYDQSFESRDLLIDEWKSLTYDEVISFVPPPLDQEEMES
modifications: GST or Flag tag in some forms
- ability to be a GRK2 substrate (32P incorporation): none of the two mutant is a GRK2 substrate
